Reference: publication PMC4874835 (Nature, 2016)

Assays:
[1] = target: cMCU-ΔNTD (C. elegans MCU residues 167-316, N-terminal domain deleted) (C. elegans) (UniProt Q21121); assay: SEC-MALS
[2] = target: cMCU-ΔNTD (C. elegans MCU residues 167-316, N-terminal domain deleted) (C. elegans) (UniProt Q21121); assay: negative stain EM
[3] = target: cMCU-ΔNTD (C. elegans MCU residues 167-316, N-terminal domain deleted) (C. elegans) (UniProt Q21121); assay: cross-linking
cross-linking = target: the molecule itself; assay: cross-linking

| stoichiometry N [1] | stoichiometry N [2] | stoichiometry N [3] | Molecule | stoichiometry N (cross-linking) |
| --- | --- | --- | --- | --- |
| 5 | 5 | 5 | cMCU-ΔNTD (C. elegans MCU residues 167-316, N-terminal domain deleted) (from UniProt Q21121 167-316) (domain or fragment) | – |
| – | – | – | KQNFDIEKYNRLVTEVDELRNQLKRMRDPLE [CCH peptide (cMCU residues 288-316 plus C-terminal L and E)] | 5 |
